Results on six substances are retold here after patent US20210024604A1, “NOVEL INSULIN DERIVATIVES” (Novo Nordisk A/S, priority 2009, published 2021).

Series [1] addresses T1, human serum albumin (Homo sapiens, UniProt P02768).
T1 construct: purchased Chromtech Inc HSA 50.3 column
The series can be described thus: Elution from immobilized human serum albumin column; shift in retention time with glucose in eluent. The class given is binding. Conditions: retention time with no glucose vs 50 mM glucose in eluent, HSA column. Here is the method:
The glucose sensitivity of insulin albumin binding can be determined by tuning glucose levels in the elution buffer and determine the shift in retention time as a function of the glucose concentration, table 1 below.
T 37° C., flow 0.7 mL/min, 20 uL of 10 uM samples, UV monitor 220 nm.
Compounds marked with an asterix were eluted with a gradient to 70% buffer B.

For series [2] the following is noted: rat, in vivo, iv.
Method: 30 male, fed Wistar rats (250 g) and 30 male, fed ZDF rats (350 g, 12 weeks old) were anesthetized using Hypnorm-Dormicum (0.081 mg/ml fentanyl citrate (VetaPharma Ltd.), 1.25 mg/ml Midazolam (Roche)) 2 ml/kg as a priming dose and additional 1 ml/kg to timepoint −5 min prior to test substance dosing, and then 1 ml/kg every 45 minutes (4 times).
Both the Wistar rats and the ZDF rats were allocated into 5 groups, 6 rats in each (eg 10 groups in total). […] Two doses of each analogue were tested: 1.2 nmol/kg or 3.6 nmol/kg in Wistar rats, and 3.6 nmol/kg or 7.2 nmol/kg in ZDF rats. Blood samples of 100 μl (tail tip capillary puncture) for determination of plasma insulin were collected in microvette tubes at time 3, 15, 30, 60, 120, 180 and 240 minutes after insulin dosing.
[3] abbreviates: pH 7.4, 37° C., gradient to 50% buffer B.

Take “A22M-15-(3,5-Diboronobenzoylamino)pentadecanoyl B29M-15-(3,5-diboronobenzoylamino)pentadecandioyl A22K desB30 Human Insulin [Example 16]”: the “Δ Rt” value in series [1] (marked *: eluted with a gradient to 70% buffer B) came to 0.7 min.

With “B29M-{4-[16-(3-Boronobenzenesulfonylamino)hexadecanoylsulfamoyl]butanoyl} desB30 Human Insulin [Example 14]”, the “Δ Rt” value in series [1] (setting [3]) came out at 0.8 min.

Consider “B29N^ε-16-(2,3-Difluoro-4-boronobenzoylamino)hexadecanoyl A14E B25H des B30 Human Insulin [Example 22]”, for which the “Δ Rt” value in series [1] (setting [3]) turned out to be 1.5 min. For the same substance, the “elimination compared with insulin of example 24” value in series [2] is “eliminated faster”.

Take “B29N^ε-16-(2,3-Difluoro-4-boronobenzoylamino)hexadecanoyl desB30 Human Insulin [Example 6]”: the “Δ Rt” value in series [1] (setting [3]) is 2.8 min.

Regarding “B29N^ε-16-(2,3-Difluoro-4-boronobenzoylamino)hexadecanoyl-γ-L-glutamyl desB30 Human Insulin [Example 4]”, the “Δ Rt” value in series [1] (setting [3]) came to 1.8 min.

In the case of “B29N^ε-16-(2,6-Difluoro-4-boronobenzoylamino)hexadecanonyl desB30 Human Insulin [Example 9]”, the “Δ Rt” value in series [1] (setting [3]) turned out to be 2.5 min.
